Experimental data: PMC5264208

T1: pentameric C-reactive protein (human), P02741
T1 chain: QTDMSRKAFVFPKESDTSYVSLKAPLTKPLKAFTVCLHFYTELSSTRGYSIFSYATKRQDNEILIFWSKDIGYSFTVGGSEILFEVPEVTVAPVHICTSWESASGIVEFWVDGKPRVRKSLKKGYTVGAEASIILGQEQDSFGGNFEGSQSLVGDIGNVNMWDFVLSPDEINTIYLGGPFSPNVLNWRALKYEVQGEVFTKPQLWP

T2: tissue-deposited CRP (human (endogenous in burn wound, skeletal muscle and carotid plaque tissue)), P02741
T2 chain: T1 chain

B1: pentameric C-reactive protein, P02741 19-224 (natural protein)
chain: T1 chain
B2: tissue-deposited CRP, P02741 19-224 (natural protein)
chain: T1 chain

Legend:
[1] = target: T1, pentameric C-reactive protein (human), …; assay: native gel or EMSA; BN-PAGE (4-16% Bis-Tris) of pCRP (40 ug/ml) pelleted with liposomes or microvesicles after 1 h at 37 °C in 25 mM Tris-HCl pH 7.4, 150 mM NaCl, 2 mM CaCl2; pCRP and mCRP controls beside it; conditions: remark: other sources report otherwise
[2] = target: T2, tissue-deposited CRP (human (endogenous …)); assay: native gel or EMSA; SDS-PAGE with 1/20 of the usual SDS content (8-13% gels), burn wound lysates loaded in native buffer; control pCRP and mCRP beside them; Western blot with anti-CRP-8; conditions: remark: other sources report otherwise

Binder	stoichiometry N [1]	stoichiometry N [2]
B1	5	
B2		5
